# Patent publication US11242370B2, “Neuregulin-4 compounds and methods of use” (Eli Lilly and Company, priority 2019, dated 2022)
# T1: HER4 receptor extracellular domain (ECD) (Homo sapiens, UniProt Q15303)
# T1 construct: C-terminal His-tagged HER4 receptor extracellular domain (ECD) construct
# T1 sequence (Q15303 26-651 limits assumed): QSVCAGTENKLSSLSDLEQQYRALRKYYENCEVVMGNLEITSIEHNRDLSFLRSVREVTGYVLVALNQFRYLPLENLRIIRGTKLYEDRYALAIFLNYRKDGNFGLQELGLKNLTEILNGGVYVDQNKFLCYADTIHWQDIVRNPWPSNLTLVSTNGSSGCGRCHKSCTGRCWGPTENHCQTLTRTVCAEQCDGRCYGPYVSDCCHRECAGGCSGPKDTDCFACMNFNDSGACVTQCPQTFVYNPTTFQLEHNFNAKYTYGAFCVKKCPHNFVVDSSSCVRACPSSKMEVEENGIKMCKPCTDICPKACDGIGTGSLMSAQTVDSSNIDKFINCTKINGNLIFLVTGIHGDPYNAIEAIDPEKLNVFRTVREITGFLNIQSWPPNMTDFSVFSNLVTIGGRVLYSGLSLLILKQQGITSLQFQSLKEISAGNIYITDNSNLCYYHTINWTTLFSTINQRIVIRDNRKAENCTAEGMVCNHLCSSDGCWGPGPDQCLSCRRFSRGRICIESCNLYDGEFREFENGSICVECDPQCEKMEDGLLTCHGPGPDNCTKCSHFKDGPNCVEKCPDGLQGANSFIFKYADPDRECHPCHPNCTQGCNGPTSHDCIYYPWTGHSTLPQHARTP
# What was measured:
# [1] = molecular target: T1, HER4 receptor extracellular domain (ECD); test: HER4/NRG-Fc binding assay (ELISA) for screening NRG4 variants
# Procedure: A binding assay is utilized to perform high-throughput screening of NRG4 variant Fc fusion proteins to HER4 receptor, to identify affinity-driven variants with the potential to increase receptor activation and signaling. ELISA plates are coated with an anti-His tag antibody at 2 μg/ml in PBS to facilitate the standardized capture of a C-terminal His-tagged HER4 receptor extracellular domain (ECD) construct after blocking the plate with 1% BSA/PBS/0.1% Tween 20 (HER4 ECD at 5 μg/ml). Saturating amounts of unpurified NRG4-Fc variants in expression media (Starting at 10 μg/ml with serial dilutions in 1% BSA/PBS/0.1% Tween 20) are incubated with the captured receptor for 1 hour. After washing, bound variant NRG4-Fc is detected colorimetrically with an anti-human Fc-specific alkaline phosphatase secondary detection reagent to quantitate binding. Incubation times of variant binding to receptor or durations of the subsequent wash steps are varied to further identify binding variants driven by affinity on-rate and off-rate, respectively.
# human HER2 and HER4 = molecular target: T2, human HER2 and HER4 (Homo sapiens, UniProt Q15303); test: Screening by human HER2-HER4 mediated ERK 1/2 phosphorylation in CHO-hHER2-hHER4 (clone 1H6) cells; type: cell-based; conditions: Fc variants as 293F supernatants
# T2 construct: expressed in transfected cells
# Procedure: A cell based assay utilizing CHO-K1 cells overexpressing human or rat HER receptors is used to determine activity of NRG4 compounds. CHO-K1 cells (ATCC) are grown in DMEM-F12 3:1 with 5% FBS with 20 mM HEPES, 40 μg/mL L-Proline, lx antibiotics and were split 1:5 every 2-3 days with TripLE Express (Gibco). Cells are transfected with plasmid DNA encoding HER receptors in pairs (hHER2-3, hHER2-4, rHER2-3 and rHER2-4) with Fugene 6 (Promega) according to the manufacturer's instructions. […] Transfected cells are selected with Puromycin (12 ug/ml) and Hygromycin (1 mg/ml) for 3-4 weeks and clonal lines are obtained by limited dilution cloning into 96 well plates. Clonal lines are selected by appropriate gene expression of HER2, HER3 or HER4 by Taqman method. Lines with appropriate receptor expression are confirmed by NRG1 induced phospho-ERK 1/2 responses. Clones are grown up, harvested, aliquoted into cryovials and then frozen under liquid nitrogen for long-term storage.
# A phospho-ERK1/2 activity assay is used to determine potencies of NRG4 compounds. The potency of Examples 1-8 and 10 as compared to WT human NRG1 and/or human NRG4 are analyzed in studies measuring stimulation of human HER2-HER4 mediated ERK 1/2 phosphorylation. This assay comprises a CHO-K1 stable line expressing human HER2 and HER4. CHO-hHER2-hHER4 (clone 1H6) cells are routinely cultured in DMEM: F12(3:1), 5% FBS, 40 μg/mL L-Proline, 10 μg/mL puromycin and 1 mg/mL hygromycin at 37° C., 5% CO2. Cells are washed twice with 1×PBS, dissociated with 0.05% trypsin/[…] EDTA and collected by centrifugation at 300×g for 10 m. Cells are re-suspended in maintenance media. 20,000 cells/well, in 30 μL, are seeded into 384 well Poly-D-Lysine cell culture plates (Greiner, Cat No. 781946). Plates are covered with a manufacturer's lid and moved to a 37° C. tissue culture incubator at 5% CO^2, 80%+ humidity and allowed to adhere. After 24 h, media are removed from the plates and replaced with 30 μL serum-free starvation media (Low glucose DMEM with 0.1% BSA) using a Biomek FX liquid handler. Plates are returned to the incubator for 24 h.
# hFcNRG4 variants, transiently expressed as 293F supernatants, are prepared in starvation media in a clear 384W plate (Greiner, cat no. 781185) as a 4pt 1:8 serial dilution (dose range averaged between 250 pM to 140000 pM). Media are removed from the cell culture plates and the 30 uL/well prepared variants are stamped into the plates using a Biomek FX liquid handler. Plates are sealed with a foil seal and stimulated for 15 minutes at room temperature on an orbital shaker. Cells are then washed once with 50 uL cold PBS. 30 uL lysis buffer is added to the cells and oscillated for 10 m at RT on an orbital shaker.
# Detection of phosphorylation of ERR 1/2 is performed with either an AlphaScreen SureFire phospho-ERK1/2 kit (T202/Y204) (Perkin Elmer, catalog no. TGRES) or an AlphaLISA® SureFire® Ultra™ p ERK1/2 assay kit together with the AlphaScreen Protein. A IgG Detection Kit (Protein-A) (PerkinElmer, catalogue no. 6760617). After lysis of the CHO-K1 cells. 4 μL lysate is transferred to a 384W Alpha Proxiplate (Perkin Elmer, cat no, 6008280) with a 384W Biomek FX. 4 uL positive and negative lysates (Perkin Elmer, TGRES-L) are added to available wells as controls. 5 uL/well acceptor mix (containing anti-phoso-Thr202/Tyr204 antibodies and Protein A conjugated acceptor beads) is added to the plate with a Forumlatrix Mantis. The plate is sealed, spun down for 1 min at 300×g and incubated for 2 hr at room temperature on an orbital shaker. 2 μL/well donor mix (containing strepavidin coated donor beads and biotinylated antibodies to a distal ERK1/2 epitope) is dispensed by Mantis. The plate is sealed, spun down for 1 min at 300×g and incubated for 2 hr at room temperature on an orbital shaker before reading on the Perkin Elmer Envision 2103 Multilabel Reader (HIS Alpha mode, excitation time: 40 ms, total measurement time: 130 ms). […]
"O.D. 405, binding to HER4 extracellular domain ([1]; Dose # 1: Example 1 10.65, WT NRG1 10, WT NRG4 17 μg/mL)","O.D. 405, binding to HER4 extracellular domain ([1]; Dose # 2: Example 1 5.325, WT NRG1 5, WT NRG4 8.5 μg/mL)","O.D. 405, binding to HER4 extracellular domain ([1]; Dose # 3: Example 1 2.6625, WT NRG1 2.5, WT NRG4 4.25 μg/mL)","O.D. 405, binding to HER4 extracellular domain ([1]; Dose # 4: Example 1 1.33125, WT NRG1 1.25, WT NRG4 2.125 μg/mL)","O.D. 405, binding to HER4 extracellular domain ([1]; Dose # 5: Example 1 0.665625, WT NRG1 0.625, WT NRG4 1.0625 μg/mL)","O.D. 405, binding to HER4 extracellular domain ([1]; Dose # 6: Example 1 0.332813, WT NRG1 0.3125, WT NRG4 0.53125 μg/mL)","O.D. 405, binding to HER4 extracellular domain ([1]; Dose # 7: Example 1 0.166406, WT NRG1 0.15625, WT NRG4 0.265625 μg/mL)","O.D. 405, binding to HER4 extracellular domain ([1]; Dose # 8: Example 1 0.083203, WT NRG1 0.078125, WT NRG4 0.132813 μg/mL)","O.D. 405, binding to HER4 extracellular domain ([1]; Dose # 9: Example 1 0.041602, WT NRG1 0.039063, WT NRG4 0.066406 μg/mL)","O.D. 405, binding to HER4 extracellular domain ([1]; Dose # 10: Example 1 0.020801, WT NRG1 0.019531, WT NRG4 0.033203 μg/mL)","O.D. 405, binding to HER4 extracellular domain ([1]; Dose # 11: Example 1 0.0104, WT NRG1 0.009766, WT NRG4 0.016602 μg/mL)","O.D. 405, binding to HER4 extracellular domain ([1]; Dose # 12: Example 1 0.0052, WT NRG1 0.004883, WT NRG4 0.008301 μg/mL)","EC50 (human HER2 and HER4; Table 5, Examples average of two replicates ± standard deviation)",EC50 (human HER2 and HER4; Table 6),Molecule
1.485,1.438,1.4,1.332,1.217,1.081,0.865,0.607,0.404,0.235,0.136,0.096,0.77 ± 0.16 nM,–,"Example 1: NRG4 D1G, (GGGGS)3 linker, SEQ ID NO: 10, fused to IgG Fc dimer SEQ ID NO: 6 and 7 (protein) chain 1: GGGGSGGGGSGGGGSGHEEPCGPSHKSFCLNGGLCYVIPTIPSPFCRCVENYTGARCEEVFL chain 2: ECPPCPAPPVAGPSVFLFPPKPKDTLMISRTPEVTCVVVDVSHEDPEVQFNWYVDGVEVHNAKTKPREEQFNSTFRVVSVLTVVHQDWLNGKEYKCKVSNKGLPAPIEKTISKTKGQPREPQVYTLPPSREEMTKNQVSLWCLVKGFYPSDIAVEWESNGQPENNYKTTPPVLDSDGSFFLYSKLTVDKSRWQQGNVFSCSVMHEALHNHYTQKSLSLSPG chain 3: ECPPCPAPPVAGPSVFLFPPKPKDTLMISRTPEVTCVVVDVSHEDPEVQFNWYVDGVEVHNAKTKPREEQFNSTFRVVSVLTVVHQDWLNGKEYKCKVSNKGLPAPIEKTISKTKGQPREPQVYTLPPSREEMTKNQVSLSCAVKGFYPSDIAVEWESNGQPENNYKTTPPVLDSDGSFFLVSKLTVDKSRWQQGNVFSCSVMHEALHNHYTQKSLSLSPG"
–,–,–,–,–,–,–,–,–,–,–,–,–,0.395 nM,"Example 6: NRG4 D1G/I26F/E44K, (GGGGS)3 linker, SEQ ID NO: 15, fused to IgG Fc dimer SEQ ID NO: 6 and 7 (protein) chain 1: GGGGSGGGGSGGGGSGHEEPCGPSHKSFCLNGGLCYVIPTFPSPFCRCVENYTGARCEKVFL chain 2: ECPPCPAPPVAGPSVFLFPPKPKDTLMISRTPEVTCVVVDVSHEDPEVQFNWYVDGVEVHNAKTKPREEQFNSTFRVVSVLTVVHQDWLNGKEYKCKVSNKGLPAPIEKTISKTKGQPREPQVYTLPPSREEMTKNQVSLWCLVKGFYPSDIAVEWESNGQPENNYKTTPPVLDSDGSFFLYSKLTVDKSRWQQGNVFSCSVMHEALHNHYTQKSLSLSPG chain 3: ECPPCPAPPVAGPSVFLFPPKPKDTLMISRTPEVTCVVVDVSHEDPEVQFNWYVDGVEVHNAKTKPREEQFNSTFRVVSVLTVVHQDWLNGKEYKCKVSNKGLPAPIEKTISKTKGQPREPQVYTLPPSREEMTKNQVSLSCAVKGFYPSDIAVEWESNGQPENNYKTTPPVLDSDGSFFLVSKLTVDKSRWQQGNVFSCSVMHEALHNHYTQKSLSLSPG"
–,–,–,–,–,–,–,–,–,–,–,–,–,0.563 nM,"Example 7: NRG4 D1G/I26F/E44H, (GGGGS)3 linker, SEQ ID NO: 16, fused to IgG Fc dimer SEQ ID NO: 6 and 7 (protein) chain 1: GGGGSGGGGSGGGGSGHEEPCGPSHKSFCLNGGLCYVIPTFPSPFCRCVENYTGARCEHVFL chain 2: ECPPCPAPPVAGPSVFLFPPKPKDTLMISRTPEVTCVVVDVSHEDPEVQFNWYVDGVEVHNAKTKPREEQFNSTFRVVSVLTVVHQDWLNGKEYKCKVSNKGLPAPIEKTISKTKGQPREPQVYTLPPSREEMTKNQVSLWCLVKGFYPSDIAVEWESNGQPENNYKTTPPVLDSDGSFFLYSKLTVDKSRWQQGNVFSCSVMHEALHNHYTQKSLSLSPG chain 3: ECPPCPAPPVAGPSVFLFPPKPKDTLMISRTPEVTCVVVDVSHEDPEVQFNWYVDGVEVHNAKTKPREEQFNSTFRVVSVLTVVHQDWLNGKEYKCKVSNKGLPAPIEKTISKTKGQPREPQVYTLPPSREEMTKNQVSLSCAVKGFYPSDIAVEWESNGQPENNYKTTPPVLDSDGSFFLVSKLTVDKSRWQQGNVFSCSVMHEALHNHYTQKSLSLSPG"
